In one assay the target is T1, BC2T K4E (human).
T1 sequence (peptide, N-terminal acetyl, C-terminal amide): PDREAAVSHWQQ
As to the kind of experiment: library pulldown, LC-MS of supernatant; ratio vs GFP-Nb control (0=captured, 1=not captured).

The target of assay [1] is mCherry tagged with the improved BC2T variations. Nature of the assay: capture on the BC2 nanotrap, SDS-PAGE and Coomassie, FIG. 19a.
In the next assay the target is T2, BC2T Q11P.
T2 sequence (peptide, N-terminal acetyl; C-terminal amide): PDRKAAVSHWPQ
Nature of the assay: positional peptide library pulldown on immobilised Nb, LC-MS of supernatant; signal ratio to control GFP-Nb (1 = not captured, near 0 = captured).

The target in a further assay is T3, BC2T S8K.
T3 sequence (peptide, N-terminal acetyl; C-terminal amide): PDRKAAVKHWQQ
The assay is described as above.

A further assay addresses T4, BC2T S8D.
T4 sequence (peptide, N-terminal acetyl; C-terminal amide): PDRKAAVDHWQQ
The assay is described as above.

For a further assay, the target named is T5, BC2T R3Q.
T5 sequence (peptide, N-terminal acetyl; C-terminal amide): PDQKAAVSHWQQ
The description is as above.

For another assay, the target named is T6, BC2T R3S.
T6 sequence (peptide, N-terminal acetyl; C-terminal amide): PDSKAAVSHWQQ
The assay is described as above.

The text below walks through data of patent US20170137467A1.

B1: BC2-NbR106S (VHH, not shown: small tags and cut ends)
VHH: QVQLVESGGGLVQPGGSLTLSCTASGFTLDHYDIGWFRQAPGKEREGVSCINNSDDDTYYADSVKGRFTIFMDNAKDTVYLQMNSLKPEDTAIYYCAEARGCKRGSYEYDFWGQGTQVTVSS
Regarding B1, the ratio in the assay with BC2T K4E (human) was found to be 0.9.

B2: BC2 nanobody (VHH, not shown: small tags and cut ends)
VHH: QVQLVESGGGLVQPGGSLTLSCTASGFTLDHYDIGWFRQAPGKEREGVSCINNSDDDTYYADSVKGRFTIFMDNAKDTVYLQMNSLKPEDTAIYYCAEARGCKRGRYEYDFWGQGTQVTVSS
In turn, B2 displayed a percent protein bound in assay [1] of less than 100%. Besides, the ratio with BC2T Q11P was determined as 0.6; with BC2T S8K, 0.8; with BC2T S8D it was 0.8.

B3: BC2-NbR106E (VHH)
VHH: QVQLVESGGGLVQPGGSLTLSCTASGFTLDHYDIGWFRQAPGKEREGVSCINNSDDDTYYADSVKGRFTIFMDNAKDTVYLQMNSLKPEDTAIYYCAEARGCKRGEYEYDFWGQGTQVTVSS
On to B3, for which the ratio in the assay with BC2T R3Q and with BC2T R3S was 0.8 each time.
